Sequences and labels used below:
B2: TcdA^1–1874-EGFP (domain or fragment)
chain: MSLISKEELIKLAYSIRPRENEYKTILTNLDEYNKLTTNNNENKYLQLKKLNESIDVFMNKYKTSSRNRALSNLKKDILKEVILIKNSNTSPVEKNLHFVWIGGEVSDIALEYIKQWADINAEYNIKLWYDSEAFLVNTLKKAIVESSTTEALQLLEEEIQNPQFDNMKFYKKRMEFIYDRQKRFINYYKSQINKPTVPTIDDIIKSHLVSEYNRDETVLESYRTNSLRKINSNHGIDIRANSLFTEQELLNIYSQELLNRGNLAAASDIVRLLALKNFGGVYLDVDMLPGIHSDLFKTISRPSSIGLDRWEMIKLEAIMKYKKYINNYTSENFDKLDQQLKDNFKLIIESKSEKSEIFSKLENLNVSDLEIKIAFALGSVINQALISKQGSYLTNLVIEQVKNRYQFLNQHLNPAIESDNNFTDTTKIFHDSLFNSATAENSMFLTKIAPYLQVGFMPEARSTISLSGPGAYASAYYDFINLQENTIEKTLKASDLIEFKFPENNLSQLTEQEINSLWSFDQASAKYQFEKYVRDYTGGSLSEDNGVDFNKNTALDKNYLLNNKIPSNNVEEAGSKNYVHYIIQLQGDDISYEATCNLFSKNPKNSIIIQRNMNESAKSYFLSDDGESILELNKYRIPERLKNKEKVKVTFIGHGKDEFNTSEFARLSVDSLSNEISSFLDTIKLDISPKNVEVNLLGCNMFSYDFNVEETYPGKLLLSIMDKITSTLPDVNKNSITIGANQYEVRINSEGRKELLAHSGKWINKEEAIMSDLSSKEYIFFDSIDNKLKAKSKNIPGLASISEDIKTLLLDASVSPDTKFILNNLKLNIESSIGDYIYYEKLEPVKNIIHNSIDDLIDEFNLLENVSDELYELKKLNNLDEKYLISFEDISKNNSTYSVRFINKSNGESVYVETEKEIFSKYSEHITKEISTIKNSIITDVNGNLLDNIQLDHTSQVNTLNAAFFIQSLIDYSSNKDVLNDLSTSVKVQLYAQLFSTGLNTIYDSIQLVNLISNAVNDTINVLPTITEGIPIVSTILDGINLGAAIKELLDEHDPLLKKELEAKVGVLAINMSLSIAATVASIVGIGAEVTIFLLPIAGISAGIPSLVNNELILHDKATSVVNYFNHLSESKKYGPLKTEDDKILVPIDDLVISEIDFNNNSIKLGTCNILAMEGGSGHTVTGNIDHFFSSPSISSHIPSLSIYSAIGIETENLDFSKKIMMLPNAPSRVFWWETGAVPGLRSLENDGTRLLDSIRDLYPGKFYWRFYAFFDYAITTLKPVYEDTNIKIKLDKDTRNFIMPTITTNEIRNKLSYSFDGAGGTYSLLLSSYPISTNINLSKDDLWIFNIDNEVREISIENGTIKKGKLIKDVLSKIDINKNKLIIGNQTIDFSGDIDNKDRYIFLTCELDDKISLIIEINLVAKSYSLLLSGDKNYLISNLSNTIEKINTLGLDSKNIAYNYTDESNNKYFGAISKTSQKSIIHYKKDSKNILEFYNDSTLEFNSKDFIAEDINVFMKDDINTITGKYYVDNNTDKSIDFSISLVSKNQVKVNGLYLNESVYSSYLDFVKNSDGHHNTSNFMNLFLDNISFWKLFGFENINFVIDKYFTLVGKTNLGYVEFICDNNKNIDIYFGEWKTSSSKSTIFSGNGRNVVVEPIYNPDTGEDISTSLDFSYEPLYGIDRYINKVLIAPDLYTSLININTNYYSNEYYPEIIVLNPNTFHKKVNINLDSSSFEYKWSTEGSDFILVRYLEESNKKILQKIRIKGILSNTQSFNKMSIDFKDIKKLSLGYIMSNFKSFNSENELDRDHLGFKIIDNKTYYYDEDSKLVKGLININNSLFYFDPIEFNLVTGWQTINGKKYYFDINTGAALTS

Holding throughout (details): both partners purified
Assay [1] concerns the target GST-fused TcdA CROPs (combined repetitive oligopeptides of Clostridium difficile toxin A) (Clostridium difficile (strain VPI 10463), UniProt P16154 1875-2710). Kind of assay: pull-down.
Assay [2] has as its target recombinant Rac1 (UniProt P63000 1-192). Kind of assay: MST.
Assay [3] concerns the target B2. The assay can be described thus: MST.

A word on the Kd: it is a measure of binding affinity in units of concentration.

B1: TcdA^1102–1847 (intermediate domain of toxin A) (domain or fragment)
chain: SAGIPSLVNNELILHDKATSVVNYFNHLSESKKYGPLKTEDDKILVPIDDLVISEIDFNNNSIKLGTCNILAMEGGSGHTVTGNIDHFFSSPSISSHIPSLSIYSAIGIETENLDFSKKIMMLPNAPSRVFWWETGAVPGLRSLENDGTRLLDSIRDLYPGKFYWRFYAFFDYAITTLKPVYEDTNIKIKLDKDTRNFIMPTITTNEIRNKLSYSFDGAGGTYSLLLSSYPISTNINLSKDDLWIFNIDNEVREISIENGTIKKGKLIKDVLSKIDINKNKLIIGNQTIDFSGDIDNKDRYIFLTCELDDKISLIIEINLVAKSYSLLLSGDKNYLISNLSNTIEKINTLGLDSKNIAYNYTDESNNKYFGAISKTSQKSIIHYKKDSKNILEFYNDSTLEFNSKDFIAEDINVFMKDDINTITGKYYVDNNTDKSIDFSISLVSKNQVKVNGLYLNESVYSSYLDFVKNSDGHHNTSNFMNLFLDNISFWKLFGFENINFVIDKYFTLVGKTNLGYVEFICDNNKNIDIYFGEWKTSSSKSTIFSGNGRNVVVEPIYNPDTGEDISTSLDFSYEPLYGIDRYINKVLIAPDLYTSLININTNYYSNEYYPEIIVLNPNTFHKKVNINLDSSSFEYKWSTEGSDFILVRYLEESNKKILQKIRIKGILSNTQSFNKMSIDFKDIKKLSLGYIMSNFKSFNSENELDRDHLGFKIIDNKTYYYDEDSKLVKGLININNSLFYFDPIE
With B1, the binding result in assay [1] was “binds”.
Turning to B2, the Kd in assay [2] was determined as 3320 ± 360 nM.

B3: isolated TcdA CROPs (TcdA^1875–2710) (domain or fragment)
chain: YKIINGKHFYFNNDGVMQLGVFKGPDGFEYFAPANTQNNNIEGQAIVYQSKFLTLNGKKYYFDNNSKAVTGWRIINNEKYYFNPNNAIAAVGLQVIDNNKYYFNPDTAIISKGWQTVNGSRYYFDTDTAIAFNGYKTIDGKHFYFDSDCVVKIGVFSTSNGFEYFAPANTYNNNIEGQAIVYQSKFLTLNGKKYYFDNNSKAVTGLQTIDSKKYYFNTNTAEAATGWQTIDGKKYYFNTNTAEAATGWQTIDGKKYYFNTNTAIASTGYTIINGKHFYFNTDGIMQIGVFKGPNGFEYFAPANTDANNIEGQAILYQNEFLTLNGKKYYFGSDSKAVTGWRIINNKKYYFNPNNAIAAIHLCTINNDKYYFSYDGILQNGYITIERNNFYFDANNESKMVTGVFKGPNGFEYFAPANTHNNNIEGQAIVYQNKFLTLNGKKYYFDNDSKAVTGWQTIDGKKYYFNLNTAEAATGWQTIDGKKYYFNLNTAEAATGWQTIDGKKYYFNTNTFIASTGYTSINGKHFYFNTDGIMQIGVFKGPNGFEYFAPANTDANNIEGQAILYQNKFLTLNGKKYYFGSDSKAVTGLRTIDGKKYYFNTNTAVAVTGWQTINGKKYYFNTNTSIASTGYTIISGKHFYFNTDGIMQIGVFKGPDGFEYFAPANTDANNIEGQAIRYQNRFLYLHDNIYYFGNNSKAATGWVTIDGNRYYFEPNTAMGANGYKTIDNKNFYFRNGLPQIGVFKGSNGFEYFAPANTDANNIEGQAIRYQNRFLHLLGKIYYFGNNSKAVTGWQTINGKVYYFMPDTAMAAAGGLFEIDGVIYFFGVDGVKAPGIYG
In assay [3], B3 showed a Kd of 1440 ± 70 nM.
